Laboratory results from EP4610277A1 (Daiichi Sankyo Company, Limited, dated 2025).

Experiments:
[1] = molecular target: T1, KIR2DL2 (22-225)-His, deglycosylated (human, UniProt P43627 22-225); assay: size exclusion chromatography of the mixed proteins; complex then crystallised
T1 construct: IL-2 signal peptide left out; treated with Protein Deglycosylation Mix II; also called recombinant KIR2DL2

[2] = molecular target: T2, recombinant human KIR3DS1/CD158e2 Fc chimera protein (4136-KR-050, R&D Systems) (human, UniProt Q14943 22-340, limits assumed); assay: flow cytometry, KIR-Fc on scFv-K562 cells
T2 construct: Bought Fc chimera; also called soluble KIR3DS1; recombinant KIR3DS1

[3] = molecular target: T3, recombinant KIR3DL1 (extracellular domain-Fc-Avi, in-house) (human); assay: flow cytometry, KIR-Fc 0.1 µM on scFv-K562 cells
T3 construct: IL-2 signal peptide left out; also called soluble KIR3DL1
T3 sequence (chain, as listed by the source): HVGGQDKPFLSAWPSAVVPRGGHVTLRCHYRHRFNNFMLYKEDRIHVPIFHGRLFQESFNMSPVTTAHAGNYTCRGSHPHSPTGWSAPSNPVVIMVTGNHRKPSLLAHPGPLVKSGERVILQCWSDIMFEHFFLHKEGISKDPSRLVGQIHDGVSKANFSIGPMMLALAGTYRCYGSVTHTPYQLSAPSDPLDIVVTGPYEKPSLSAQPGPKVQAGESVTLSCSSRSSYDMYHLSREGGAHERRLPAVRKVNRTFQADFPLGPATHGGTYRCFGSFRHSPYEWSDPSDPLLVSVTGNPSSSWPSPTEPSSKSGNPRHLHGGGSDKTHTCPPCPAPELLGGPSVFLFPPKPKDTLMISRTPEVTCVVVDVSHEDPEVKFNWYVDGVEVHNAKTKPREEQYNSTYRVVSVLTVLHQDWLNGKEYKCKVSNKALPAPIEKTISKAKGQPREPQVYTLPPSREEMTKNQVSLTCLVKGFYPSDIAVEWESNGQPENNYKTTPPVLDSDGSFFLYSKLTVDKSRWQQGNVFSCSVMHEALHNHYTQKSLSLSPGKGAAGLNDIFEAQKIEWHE

T2 sequence (Q14943 22-340 limits assumed, change not shown): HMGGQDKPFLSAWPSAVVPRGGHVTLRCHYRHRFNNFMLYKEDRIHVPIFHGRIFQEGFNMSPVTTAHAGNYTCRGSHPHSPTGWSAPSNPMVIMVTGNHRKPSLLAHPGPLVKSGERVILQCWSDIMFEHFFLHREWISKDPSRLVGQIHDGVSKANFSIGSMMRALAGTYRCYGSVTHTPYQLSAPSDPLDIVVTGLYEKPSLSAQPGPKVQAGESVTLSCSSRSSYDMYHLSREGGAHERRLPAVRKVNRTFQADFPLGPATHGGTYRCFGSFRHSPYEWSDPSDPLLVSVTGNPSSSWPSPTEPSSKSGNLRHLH
T1 sequence (P43627 other isoform, or with tags, fused parts or gaps): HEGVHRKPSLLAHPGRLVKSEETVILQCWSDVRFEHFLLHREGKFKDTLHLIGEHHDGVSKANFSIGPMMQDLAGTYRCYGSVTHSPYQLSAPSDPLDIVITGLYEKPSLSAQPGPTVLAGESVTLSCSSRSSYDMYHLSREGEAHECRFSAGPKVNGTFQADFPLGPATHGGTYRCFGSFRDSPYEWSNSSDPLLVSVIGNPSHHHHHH

binding result [1]	binding result [2]	binding result [3]	Binder
binds			Fab fragment of a2DL2/3-DS10 (Fab, V domains shown, Signal peptides left out; also called a2DL2/3-DS10 Fab; 61_3092_02_F10_Fab) VH: QVQLVQSGAEVKKPGSSVKVSCKASGGTFSSFAISWVRQAPGQGLEWMGGIIPIFGTANYAQKFQGRVTITADESTSTAYMELSSLRSEDTAVYYCARVSGTTGGYYYGMDVWGQGTLVTVSS VL: AIRMTQSPSSVSASVGDRVTITCRASQGIGNWLAWYQQKPGRAPKLLISTASSLQSGVPSRFSGGGSGRGFTLTISSLQLEDFATYYCQQSYITPWTFGQGTKVEIKV
	no binding (tested: 0.1 µM)	binds	membrane-type a3DL1-DS6 scFv (scFv, On K562 cells) scFv: DYKDDDDKGSGQMQLVQSGAEVKKPGESLKISCKGSGYSFTSYWIGWVRQMPGKGPEWMGIIYPGDSYTNYSPSFQGHVTISADKSISTAYLQWSSLKASDTAMYYCARLAPTVEDAFDIWGQGTLVTVSSGGGGSGGGGSGGGGSQSVLTQPPSVSEAPGQRVTISCTGSSSNIGAGYDVHWYQQLPGTAPKLLIYGNSNRPSGVPDRFSGSKSGTSASLAITGLQAEDEADYYCQSYDSSLSEEVFGTGTKVTVLALSNSIMYFSHFVPVFLPAKPTTTPAPRPPTPAPTIASQPLSLRPEACRPAAGGAVHTRGLDFACDIYIWAPLAGTCGVLLLSLVITLYCNH
